Where no end group is shown, it is not given here. 3xPEG = linker of three PEG units

In assay [1] the target is mouse PKA-Cα (PKA catalytic subunit alpha), purified (mouse, UniProt P05132 1-351). As to the kind of experiment: fluorescence polarisation. (In general: Fluorescence polarisation rises when a labelled molecule tumbles more slowly, as on binding a larger partner.)
Assay [2] concerns the target human PKA-Cα (PKA catalytic subunit alpha), purified, used in fluorescence polarization (human, UniProt P17612 1-351). The assay can be described thus: fluorescence polarisation.

With {FAM-3xPEG}-SADVSSAWAQHVTKMVARRGAILP [FAM-labeled standard SMO PKI peptide (SMO residues 615–638)], the Kd in assay [1] is 911 nM; in assay [2], 823 nM.

A word on the Kd: it is the concentration at which binding is half-saturated.

The record behind these values is article PMC9696579 (Nature structural & molecular biology, 2022).
